Source: publication PMC11098746 (2024)
No end group written: not given here.

T1: ADP315
T1 chain: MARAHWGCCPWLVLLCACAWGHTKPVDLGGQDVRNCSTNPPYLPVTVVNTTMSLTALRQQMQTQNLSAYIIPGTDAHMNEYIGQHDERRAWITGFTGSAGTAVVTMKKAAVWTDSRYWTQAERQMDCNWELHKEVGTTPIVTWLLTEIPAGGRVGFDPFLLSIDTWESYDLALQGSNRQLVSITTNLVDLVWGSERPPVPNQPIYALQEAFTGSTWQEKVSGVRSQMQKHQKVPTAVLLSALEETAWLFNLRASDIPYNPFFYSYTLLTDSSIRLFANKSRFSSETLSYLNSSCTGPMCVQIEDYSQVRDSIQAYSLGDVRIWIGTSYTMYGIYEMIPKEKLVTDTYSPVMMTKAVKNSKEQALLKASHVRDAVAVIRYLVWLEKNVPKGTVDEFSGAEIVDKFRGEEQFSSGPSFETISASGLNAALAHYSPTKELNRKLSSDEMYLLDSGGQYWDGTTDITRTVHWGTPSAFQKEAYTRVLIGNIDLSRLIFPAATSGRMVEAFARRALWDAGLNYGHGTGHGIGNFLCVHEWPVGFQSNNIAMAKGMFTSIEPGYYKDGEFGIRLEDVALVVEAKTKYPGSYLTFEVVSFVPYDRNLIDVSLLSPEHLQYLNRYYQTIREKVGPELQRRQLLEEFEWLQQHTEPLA

B1: 7 (protein)
chain: GIISGRINIAAEFHINIFVKDYFKKKKLTFVNFVSLCPKGFNIENNKCIPCPIGLYYSNSKSINQCIPCENYRKHSTTLYNSAKSKTECLCKPGYFLKDKRCVKCVAGFYKDQIGNFKCQGTCENTKMSIEVGAKNYEELKCTCKDGYFTEKKKKECIPCPFGNYCIYNPKVKYKADIIRCKNNKLTLHRGSKSPNDCLCSQGYYHDYKMDECELCNYDQYKSHISNDPCVPFISKSLVNQEYLINEPYFQYTNIYIKQTSNIIFAPKKGSKMFHEATLCETGYSYSMNKAICSICRYNNYCLGLDHSSIICPKNSITIKLKSVSALDCLCIKGYGRIIINTNQAFTISCIPCPYNTFQPHHSYGKCIPCPPHTFTKITGATSITECIPKMGYYNIAFEYIYEYSKQQMLNSIPHFIQYYHYFLKNQYEHFA
modifications: bait human Fc-tagged dimer
B2: 26 (protein)
chain: KCIRLNNRAIYKNKYKNNVHIGTNENIRSIEKYSNVLCNSILCKNDKISSFINQRKNVDDDDESENDDMYESTTAGSSSETDNEADEEENDASDNNNADEEQIENSNNNNADEEQNDASSNDNNDEENEEQDDVMDNDQNDKKIKHSFNLANEAKHTKEERVKEEKKLKIYDFINDKEKRLNFNGDQKDEDNEENDDKDENTLENRNIISKHTSVFPGLYFIGIGYNLLFGNPLGEADSLIDPGYRAQIYLMEWALSKEGIANDLSTLQPVNGWIRKENACSRVESITECSSISDYTKSLSAEAKVSGSYWGIASFSASTGYSSFLHEVTKRSKKTFLVKSNCVKYTIGLPPYIPWDKTTAYKNAVNELPAVFTGLDKESECPSDVYEENKAKSNCENVALWMKFFDIYGTHIIYESQLGGKITKIINVATSSIEQMKKNGVSVKAKIQAQFGFGSAGGSTDVNSANSAANDEQSYDMNEQLIVIGGNPIKDVTKEENLFEWSKTVTNHPMPINIKLTPISDSFDSDDLKESYDKAIIYYSRLYGLSPHDTMQKDDKDIIKILTNADTVTKNSAPPINAQCPHGKVVMFGFSLKQNFWDNTNALKGYNIEVCEAGSNSCTSKQGSSNKYDTSYLYMECGDQPLPFSEQVISESTSTYNTVKCPNDYSILLGFGISSSSGRINSAEYVYSTPCIPGMKSCSLNMNNDNQKSYIYVLCVDTTIWSGVNNLALVALDGAHGKVNRAKKYSDGELVGTCPLDGTVLTGFKVEFHTSSPYVQTPFEKCAKSLKACSVHGSGHAIGIQNFKSLFIYMLCKNNK
modifications: bait human Fc-tagged dimer
B3: 22 (protein)
chain: RGNQISKCVFYDKRNKDLKQVFYVPTNDVNMYKETIRKLLSREISLLEEPLNENSDSHNMANKKNVANFEEIKKNDENNNRKRKEMEEKLKYIEKYRNYAKGVLKNVEFKCENVDDLKSKVKCNLCVYTEIVNNKHIRQGQIIQIFMNECMYGFYYYDNINQYTQNNEYNNKALKDYNSAQKLDDIYFNIAKDISEGNVNGINFFKQQSSKYHPVCYVTE
modifications: bait human Fc-tagged dimer
B4: 85 (protein)
chain: VKERNNGFPKRGEGRYLFGRNQMKSQDIEKNNKELSNKMDTQDSKQYITYLYHSSICQYCSKVTSMLENNDNVEIIKFKENNKIEDFGKFTKPIVVLLKNINKENSLERSIFYEELKRKGKKVQVPALEVNNIILFESDEIIKFYKKLLQKVSNDDKSSLQNRGNIKNDQKKNNADYDNDYDNDDNNDDNDDDDDNNYNNNNDDGYDYHTS
modifications: bait human Fc-tagged dimer
B5: 24 (protein)
chain: FKGNYGEANFAFFQATPASHIEEPQKTESTDAQSNIAQNEEINNAKPLQENIANNQQNSNEQQNNNEQQNNIEQQNNNIQQNNIDTSISHVPNDAIKNPIDNSNIANLDKSNDANNVIKHEENNQAKENNLETIKHTEPLTNQNTNEVKINDHNEHEKNTEENKIEEQYNNINHHSHDINKNQAINNNMNNENADKNVPHLDQSAMSNEKHINEHTTNHPIESHTGENNHDKINEPIPIEHATTPTNEPIPIEHAATPTNEPIPIEHAATPTNEPIHIEHVATPANEPTHSEHATTTTNEPIHIEHAATPTNEHIHNEHATTTTNEPTHNEHAATITHEPTHNEHTTTPTNEPIHNEHATTPTNEPIPIEHIATPANEPTHNEHATTTTNEPTHNEHTTTPTNEPIHNEHATTPTNEPIPIEHIATPANEPTHNEHATTTTNEPTHNEHATTTTNEPTHNEHATTTTNEPIHNEHATATTNEATHNEHATTTTNEPTHNEHSTTPTNEATHSENAATSTNEQHSHDQNTEVHPNDKLALVPFQGIKNPIPSNEAQPIISFPNEDDNHAQNEGSINAPSEGEHNNADNKEGPIITPLEGEQAGTAHKEDVTHKHMVGEHVPPQKTHHGPIITPVGGNHVPPQTHHAHIITPVGGEHAHGQGNNDATYVTMNTDESSSSDTKGEHSNLRSYNKNMNNNHAQRDQYDSDTLNSEGSDDAYSSMQQNFEKNGIDSFKGKGLHVSLRERIIIEIMESAKNGIDGLLKLKDSKDSGKLFMEALEKLNINMKDLKKDKNLISLEVYDKILSTMFKILTEMSFYEDSKFYETLGIKKDILNQALKDIKIKMLRKLGVSYSRLPPIIKHTEGKCAIKDIIISISSKELAQRMAIMFTKWLAPDEYGAVVDYENNVELNVLCSGAPILIQQWKYYQNMLGFEEDKDHAYLGLIDELLVMNKRYSQNKDYVETLEKIKKSKVFKHCTKIMRIGGKVSSVPFNYENVKKPSSSIIGSLGNLIKANIATYYKATAQRINSYFHYTEKKSKKSSPLKIISVCTLLHLTDMLYKCSDENSNGVMDLYNLQLNTLNMKGKMVLQYLVHLKFLTQEKKNQLKEICEPQNGLIDETLTKMLILLSTDSHELLSHELENKGFDEDYIQDEIKNINEADNNIRDKEEDDAEKMIFDDL
modifications: bait human Fc-tagged dimer
B6: 19 (protein)
chain: KNSDTKNNAYNDYYNTYLSKIHSFKAPFNVENLENGWNVDYSSVSTNKHVVLIPSIYNRRGVLYNKNPINSDNFIIEFNFFMERKYYKEKIDEKYYKDEKNDVHEIVYKTNSDDNLATSNKANNKEQKQIKRNGFALWILKDPFVIKEAGSNVNLVLQEEEYNIFGYKNRFNGIGILFQLKKSTNKANNKANNNNNYYYYNNYNDILNVAIILNNGDKSINSDDFTIFKNIPIDMIMINNLIHTKIICNKKEIIIAFYYPKSNNYINTLIMKNNIATENYIAFTSFNYKEDDNKNIDYNDVNNKYYENQNGYLPTFVGIKQVLTFNLNNNNNNNNNININEANINNNNYNNNNNNDNNKINYDQNYNKDISANDINAAFNDVLNNINPEKNTINQAIDVLNSITKLLQKFMNHQINSEKKLLQNINILNEKLQFVQTELKVIKKNLANQAEEPKNLQKMFSTELTGLKNLFHTHTQHHKKNIEDITNKLTKKIERNNELKILTEKAQKLEQIINK
modifications: bait human Fc-tagged dimer
B7: 21 (protein)
chain: SPGNDNNNVNNDGVVHVLSKNIDVKNLQGTFYEIATNAADKIFPGLACRCTKYEFSGLKRDGNLGYVLINFACARNFIFGEKKSEMTFKLILNKPLDENTATVEEFNAAIYLVQGNQQILLNGNINIIYAELNEQNEFEHLILGGQKSIEPMIIMSKYRTVLLDTYNKLINSLYLAGYEPSLLTWPFIIQTDQTFCD
modifications: bait human Fc-tagged dimer
B8: 13 (protein)
chain: YLSSENQKKTIATVHNNARTNTLKKNNANNNNANDIFGLSPSEVPNLIDDEEEYEILEGVKNNADLTRSTNIDHPSPSSTMIDLDNIITEISKLKKKKLKKEMNNKLEQQTNQNNNAIHHNNENEINTFTQNIKTNSNELKNQDSSNSLISTNSNTMDELLLYSTNSEDNLDISFGELQLYENSDEDTSDYEYVNEDYSVNHIFSNDAEESFNILEDVENIALSSSNRYQYSPIGPYKKKHTKVFENFKMTRNYDEFLKLYNLKDSSDNQEEYYELLAGEPFKLNSYYYRDVKYENVKKYIFKEIYDNIQNIATENKIIVSKKEELFFYFIKSLLKNNFICLSYEEEENLLSESKLLLEAMISKKIQ
modifications: bait human Fc-tagged dimer
B9: ADP186 (protein)
chain: YNLNNDLSKNNNFALNTYVRKDDVEDDSKNEIVDNIQKMVDDFSDDIGFVKTSMREVLLDTEASLEEVSDHVVQNIAKYSLTIEEKLNLFDGLLEEFIENNKGLISNLAKRQQKLKGDKIKKVCDLILKKLKKLENVNKLIKYKIILKYGNKDNKKEMIQTLKNEEGLSDDFKNNLANYETEQNNDDIKEIELVNFISTNYDKFVVNLEDLNKELLKDLNMALS
modifications: bait human Fc-tagged dimer; N-glycosylation sequons mutated in Plasmodium baits
B10: ADP258 (protein)
chain: MGFHIQRYIAMMGRGINPKTWKKLWVDSKNKQIIHVYNDVAEFMNNQIAQVVRVYQYRY
modifications: also: human Fc-tagged dimer
B11: ADP175 (protein)
chain: KVYQGQFYLKKNEKIHYLTKFSCNIGTCQFSIKMKLRDNIAAKLLNNYYKLNNKALKEMENDKDDGNNHNNNKYDDDNNNNNNRANKLLHMDYDNAYYVLSNQDLEYIPQRITLMQDIEQRYVNKNDKCYAFGNLKNSHMFNIPFYFKYSDLVNSKTYNLKNFINNKYSMSFNAIHSELKNNKLLQSEILNYGPILNEKNSNYAYKEIYAKTTHRVHVWFLMFDDCYDNFIRNLKLNIKTKLAYWEYLLHASKKFDISSLNDMDIKQDTSYNDFQNEETEKDIYSKENINNNNNNNMNNNMNEKKNKAIFYKSFNFDKITLLENPKRFLFLEEQFTKSEINDISFFLKYYQFKKMKNFNNMYNNLYKNGYYEQVIDYIYQNEGFHIEYEVNIFQTNKAHFSYE
modifications: bait human Fc-tagged dimer; N-glycosylation sequons mutated in Plasmodium baits

target: FGFR4 ectodomain (Homo sapiens, UniProt P22455); test: AVEXIS normalised luminescence

**Q.** Which binding score does the source give for B1 here?
**A.** 0.976

**Q.** Which binding score does the source give for B2 here?
**A.** 0.914

**Q.** How did the binding score turn out when B3 was run?
**A.** 0.879

**Q.** B4 was tested. Which binding score did it give?
**A.** 1.22

**Q.** B5 was tested. Which binding score did it give?
**A.** 1

**Q.** Which binding score does the source give for B6 here?
**A.** 1.47

**Q.** Which binding score does the source give for B7 here?
**A.** 1.31

**Q.** Which binding score does the source give for B8 here?
**A.** 1.16

target: ADP369; test: AVEXIS screen signal:noise (double-corrected)

**Q.** How did the binding score turn out when B9 was run?
**A.** 5.22

Target: T1, ADP315
Test: AVEXIS screen signal:noise (double-corrected)

**Q.** For B10, which binding score is on record?
**A.** 6.28

**Q.** With B11 as the binder, how does the binding score read?
**A.** 5.79
